Values of other authors in PMC2883863.

Legend:
Cys30 = Cys30 (UniProt position 49, FFSFFCPHCYQ); details: not stated (quoted literature value for E. coli DsbA)
Cys32 = Cys32 (UniProt position 33, FWAEWCGPCKM); details: not stated (quoted literature value for E. coli thioredoxin)

Substance	pKa (Cys30)	pKa (Cys32)
Thiol:disulfide interchange protein DsbA (Escherichia coli)	3.5	–
Thioredoxin 1 (Escherichia coli)	–	7.5
